Measured values reported in paper PMC3662962 (Biochemical and biophysical research communications, 2010).

Target: the molecule itself

B1: PAS domain of Mycobacterium tuberculosis Rv1364c (residues 1-163) (domain or fragment)
chain: MAAEMDWDKTVGAAEDVRRIFEHIPAILVGLEGPDHRFVAVNAAYRGFSPLLDTVGQPAREVYPELEGQQIYEMLDRVYQTGEPQSGSEWRLQTDYDGSGVEERYFDFVVTPRRRADGSIEGVQLIVDDVTSRVRARQAAEARVEELSERYRNVRDSATVMQQ
modifications: Se-Methionine labeled (the crystallised protein only)
  stoichiometry N: 2
